The values below come from PMC4577081 (2015).

The experiment deals with human CD47/his fusion protein (extracellular domain of human CD47 fused to His-tag) (human). The experiment in a line: SPR; monomeric hCD47.

B1: mouse anti-human CD47 monoclonal antibody 5F9 (antibody, V domains shown)
VH: QVQLQQPGAELVKPGASVMMSCKASGYTFTNYNMHWVKQTPGQGLEWIGTIYPGNDDTSYNQKFKDKATLTADKSSSAAYMQLSSLTSEDSAVYYCARGGYRAMDYWGQGTSVTVSS
VL: DVLMTQTPLSLPVSLGDQASISCRSSQSIVYSNGNTYLGWYLQKPGQSPKLLIYKVSNRFSGVPDRFSGSGSGTDFTLKISRVEAEDLGVYHCFQGSHVPYTFGGGTKVEIK
modifications: biotin-labeled in the competition ELISA (site not stated)
The molecule B1 gave a Kd of 19.9 nM.
